Source: US20190127438

What was measured:
[1] = target: T1, recombinant wild type FceRIa (extracellular region of the alpha chain of the human high-affinity IgE receptor, spacer, 6His)
T1 chain: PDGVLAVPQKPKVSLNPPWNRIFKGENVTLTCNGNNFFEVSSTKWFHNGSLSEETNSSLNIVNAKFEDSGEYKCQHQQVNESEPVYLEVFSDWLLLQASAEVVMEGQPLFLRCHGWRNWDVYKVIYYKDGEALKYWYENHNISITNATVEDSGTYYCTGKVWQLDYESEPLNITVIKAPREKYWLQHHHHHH

[2] = target: T2, protease resistant A43-FceRIa (K43 to A43 variant of recombinant human FceRIa)
T2 chain 1: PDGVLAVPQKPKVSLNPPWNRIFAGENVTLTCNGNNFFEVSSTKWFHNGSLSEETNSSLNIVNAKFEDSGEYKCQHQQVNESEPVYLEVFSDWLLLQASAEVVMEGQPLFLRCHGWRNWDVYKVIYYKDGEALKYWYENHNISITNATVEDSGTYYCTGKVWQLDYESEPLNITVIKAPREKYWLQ
T2 chain 2: HHHHHH

B1: plasmin (Sigma P1867) (protein)
chain: KVYLSECKTGNGKNYRGTMSKTKNGITCQKWSSTSPHRPRFSPATHPSEGLEENYCRNPDNDPQGPWCYTTDPEKRYDYCDILECEEECMHCSGENYDGKISKTMSGLECQAWDSQSPHAHGYIPSKFPNKNLKKNYCRNPDRELRPWCFTTDPNKRWELCDIPRCTTPPPSSGPTYQCLKGTGENYRGNVAVTVSGHTCQHWSAQTPHTHNRTPENFPCKNLDENYCRNPDGKRAPWCHTTNSQVRWEYCKIPSCDSSPVSTEQLAPTAPPELTPVVQDCYHGDGQSYRGTSSTTTTGKKCQSWSSMTPHRHQKTPENYPNAGLTMNYCRNPDADKGPWCFTTDPSVRWEYCNLKKCSGTEASVVAPPPVVLLPDVETPSEEDCMFGNGKGYRGKRATTVTGTPCQDWAAQEPHRHSIFTPETNPRAGLEKNYCRNPDGDVGGPWCYTTNPRKLYDYCDVPQCAAPSFDCGKPQVEPKKCPGRVVGGCVAHPHSWPWQVSLRTRFGMHFCGGTLISPEWVLTAAHCLEKSPRPSSYKVILGAHQEVNLEPHVQEIEVSRLFLEPTRKDIALLKLSSPAVITDKVIPACLPSPNYVVADRTECFITGWGETQGTFGAGLLKEAQLPVIENKVCNRYEFLNGRVQSTELCAGHLAGGTDSCQGDSGGPLVCFEKDKYILQGVTSWGLGCARPNKPGVYVRVSRFVTWIEGVMRNN
[1]
  plasmin cleavage, peptides in the Base Peak Chromatogram (LC-MS): Site K43 (indicated as peptide K in FIG. 2B) of recombinant wt FceRIa was preferentially cleaved whereas plasmin cleavage sites K31, R40, K201, R199, K196 and K142 (indicated as peptide 1-8 in FIG. 2B) were cleaved to lesser extent
[2]
  plasmin cleavage, Base Peak Chromatogram (LC-MS): complete absence of a cleavage product in the mutant, protease resistant variant of recombinant A43-FceRIa (black line), whereas the wild type receptor digest peak appears at 30 min (grey line)
